Experimental data from patent US6084068, “Elongin A and C functional domains” (Oklahoma Medical Research Foundation, dated 2000).

T1: Elongin BC complex (wild type rat Elongin B and C) (rat, UniProt P62870)
T1 chain 1: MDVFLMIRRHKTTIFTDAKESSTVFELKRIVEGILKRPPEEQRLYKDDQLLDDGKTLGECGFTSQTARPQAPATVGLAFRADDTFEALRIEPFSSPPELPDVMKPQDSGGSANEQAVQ
T1 chain 2: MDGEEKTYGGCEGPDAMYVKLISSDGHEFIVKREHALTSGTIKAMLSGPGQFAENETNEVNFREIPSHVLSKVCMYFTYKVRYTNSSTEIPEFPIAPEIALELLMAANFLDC


Biological target: T1, Elongin BC complex (wild type rat …)
Test: refolded with wild type Elongin B and C; TSK SP-NPR HPLC, SDS-PAGE, silver staining

| Binder | binding result |
| --- | --- |
| Elongin A point mutant T549I (other) MAAESALQVVEKLQARLAANPDPKKLLKYLKKLSVLPITVDILVETGVGKTVNSFRKHEQVGNFARDLVAQWKKLVPVERNNEAEDQDFEKSNSRKRPRDVPQQEEEAEGNYQESWQASGSQPYSPEHRQKKHRKLPELERPHKVAHGHERRDERKRCHKVSPPYSSDPESSDYGHVQSPPPSSPHQMYTDLSRSPEMDQEPIVSHPKPGKVHSNTFQDRLGVSHLGEHQGKGAVSQNKPHKSSHKEKRPVDARGDEKSSVMGREKSHKASSKEESRRLLSEDSAKEKLPSSVVKKEKDREGNSLKKKLSPALDVASDNHFKKPKHKDSEKIKSDKNKQSVDSVDSGRGTGDPLPRAKDKVPNNLKAQEGKVRTNSDRKSPGSLPKVEEMDMDDEFEQPTMSFESYLSYDQPRKKKKKVVKTSGTALGEKGLKKKDSKSTSKNLNSAQKLPKANENKSDKLQPAGAEPTRPRKVPTDVLPALPDIPLPAIQTNYRPLPSLELISSFQPKRKAFSSPQEEEEAGFTGRRMNSKMQVYSGSKCAYLPKMMILHQQCIRVLKNNIDSIFEVGGVPYSVLEPVLERCTPDQLYRIEECNHVLIEETDQLWKVHCHRDFKEERPEEYESWREMYLRLQDAREQRLRLLTNNIRSAHANKPKGRQAKMAFVNSVAKPPRDVRRRQEKFGTGGAAVPEKVRIKPAPYTTGSSHVPASNSSSSFHSSPEELAYEGPSTSSAHLAPVASSSVSYDPRKPAVKKIAPMMAKTIKAFKNRFSRR | binds |
| Elongin A point mutant V557E (other) MAAESALQVVEKLQARLAANPDPKKLLKYLKKLSVLPITVDILVETGVGKTVNSFRKHEQVGNFARDLVAQWKKLVPVERNNEAEDQDFEKSNSRKRPRDVPQQEEEAEGNYQESWQASGSQPYSPEHRQKKHRKLPELERPHKVAHGHERRDERKRCHKVSPPYSSDPESSDYGHVQSPPPSSPHQMYTDLSRSPEMDQEPIVSHPKPGKVHSNTFQDRLGVSHLGEHQGKGAVSQNKPHKSSHKEKRPVDARGDEKSSVMGREKSHKASSKEESRRLLSEDSAKEKLPSSVVKKEKDREGNSLKKKLSPALDVASDNHFKKPKHKDSEKIKSDKNKQSVDSVDSGRGTGDPLPRAKDKVPNNLKAQEGKVRTNSDRKSPGSLPKVEEMDMDDEFEQPTMSFESYLSYDQPRKKKKKVVKTSGTALGEKGLKKKDSKSTSKNLNSAQKLPKANENKSDKLQPAGAEPTRPRKVPTDVLPALPDIPLPAIQTNYRPLPSLELISSFQPKRKAFSSPQEEEEAGFTGRRMNSKMQVYSGSKCAYLPKMMTLHQQCIRELKNNIDSIFEVGGVPYSVLEPVLERCTPDQLYRIEECNHVLIEETDQLWKVHCHRDFKEERPEEYESWREMYLRLQDAREQRLRLLTNNIRSAHANKPKGRQAKMAFVNSVAKPPRDVRRRQEKFGTGGAAVPEKVRIKPAPYTTGSSHVPASNSSSSFHSSPEELAYEGPSTSSAHLAPVASSSVSYDPRKPAVKKIAPMMAKTIKAFKNRFSRR | binds |
| Elongin A point mutant C554F (other) MAAESALQVVEKLQARLAANPDPKKLLKYLKKLSVLPITVDILVETGVGKTVNSFRKHEQVGNFARDLVAQWKKLVPVERNNEAEDQDFEKSNSRKRPRDVPQQEEEAEGNYQESWQASGSQPYSPEHRQKKHRKLPELERPHKVAHGHERRDERKRCHKVSPPYSSDPESSDYGHVQSPPPSSPHQMYTDLSRSPEMDQEPIVSHPKPGKVHSNTFQDRLGVSHLGEHQGKGAVSQNKPHKSSHKEKRPVDARGDEKSSVMGREKSHKASSKEESRRLLSEDSAKEKLPSSVVKKEKDREGNSLKKKLSPALDVASDNHFKKPKHKDSEKIKSDKNKQSVDSVDSGRGTGDPLPRAKDKVPNNLKAQEGKVRTNSDRKSPGSLPKVEEMDMDDEFEQPTMSFESYLSYDQPRKKKKKVVKTSGTALGEKGLKKKDSKSTSKNLNSAQKLPKANENKSDKLQPAGAEPTRPRKVPTDVLPALPDIPLPAIQTNYRPLPSLELISSFQPKRKAFSSPQEEEEAGFTGRRMNSKMQVYSGSKCAYLPKMMTLHQQFIRVLKNNIDSIFEVGGVPYSVLEPVLERCTPDQLYRIEECNHVLIEETDQLWKVHCHRDFKEERPEEYESWREMYLRLQDAREQRLRLLTNNIRSAHANKPKGRQAKMAFVNSVAKPPRDVRRRQEKFGTGGAAVPEKVRIKPAPYTTGSSHVPASNSSSSFHSSPEELAYEGPSTSSAHLAPVASSSVSYDPRKPAVKKIAPMMAKTIKAFKNRFSRR | binds |
| Elongin A deletion mutant 1-630 (other) MAAESALQVVEKLQARLAANPDPKKLLKYLKKLSVLPITVDILVETGVGKTVNSFRKHEQVGNFARDLVAQWKKLVPVERNNEAEDQDFEKSNSRKRPRDVPQQEEEAEGNYQESWQASGSQPYSPEHRQKKHRKLPELERPHKVAHGHERRDERKRCHKVSPPYSSDPESSDYGHVQSPPPSSPHQMYTDLSRSPEMDQEPIVSHPKPGKVHSNTFQDRLGVSHLGEHQGKGAVSQNKPHKSSHKEKRPVDARGDEKSSVMGREKSHKASSKEESRRLLSEDSAKEKLPSSVVKKEKDREGNSLKKKLSPALDVASDNHFKKPKHKDSEKIKSDKNKQSVDSVDSGRGTGDPLPRAKDKVPNNLKAQEGKVRTNSDRKSPGSLPKVEEMDMDDEFEQPTMSFESYLSYDQPRKKKKKVVKTSGTALGEKGLKKKDSKSTSKNLNSAQKLPKANENKSDKLQPAGAEPTRPRKVPTDVLPALPDIPLPAIQTNYRPLPSLELISSFQPKRKAFSSPQEEEEAGFTGRRMNSKMQVYSGSKCAYLPKMMTLHQQCIRVLKNNIDSIFEVGGVPYSVLEPVLERCTPDQLYRIEECNHVLIEETDQLWKVHCHRDFKEERPEEYESWREMYL | binds |
| Elongin A deletion mutant 1-730 (other) MAAESALQVVEKLQARLAANPDPKKLLKYLKKLSVLPITVDILVETGVGKTVNSFRKHEQVGNFARDLVAQWKKLVPVERNNEAEDQDFEKSNSRKRPRDVPQQEEEAEGNYQESWQASGSQPYSPEHRQKKHRKLPELERPHKVAHGHERRDERKRCHKVSPPYSSDPESSDYGHVQSPPPSSPHQMYTDLSRSPEMDQEPIVSHPKPGKVHSNTFQDRLGVSHLGEHQGKGAVSQNKPHKSSHKEKRPVDARGDEKSSVMGREKSHKASSKEESRRLLSEDSAKEKLPSSVVKKEKDREGNSLKKKLSPALDVASDNHFKKPKHKDSEKIKSDKNKQSVDSVDSGRGTGDPLPRAKDKVPNNLKAQEGKVRTNSDRKSPGSLPKVEEMDMDDEFEQPTMSFESYLSYDQPRKKKKKVVKTSGTALGEKGLKKKDSKSTSKNLNSAQKLPKANENKSDKLQPAGAEPTRPRKVPTDVLPALPDIPLPAIQTNYRPLPSLELISSFQPKRKAFSSPQEEEEAGFTGRRMNSKMQVYSGSKCAYLPKMMTLHQQCIRVLKNNIDSIFEVGGVPYSVLEPVLERCTPDQLYRIEECNHVLIEETDQLWKVHCHRDFKEERPEEYESWREMYLRLQDAREQRLRLLTNNIRSAHANKPKGRQAKMAFVNSVAKPPRDVRRRQEKFGTGGAAVPEKVRIKPAPYTTGSSHVPASNSSSSFHSSPEELAYEGPST | binds |
| Elongin A deletion mutant 1-680 (other) MAAESALQVVEKLQARLAANPDPKKLLKYLKKLSVLPITVDILVETGVGKTVNSFRKHEQVGNFARDLVAQWKKLVPVERNNEAEDQDFEKSNSRKRPRDVPQQEEEAEGNYQESWQASGSQPYSPEHRQKKHRKLPELERPHKVAHGHERRDERKRCHKVSPPYSSDPESSDYGHVQSPPPSSPHQMYTDLSRSPEMDQEPIVSHPKPGKVHSNTFQDRLGVSHLGEHQGKGAVSQNKPHKSSHKEKRPVDARGDEKSSVMGREKSHKASSKEESRRLLSEDSAKEKLPSSVVKKEKDREGNSLKKKLSPALDVASDNHFKKPKHKDSEKIKSDKNKQSVDSVDSGRGTGDPLPRAKDKVPNNLKAQEGKVRTNSDRKSPGSLPKVEEMDMDDEFEQPTMSFESYLSYDQPRKKKKKVVKTSGTALGEKGLKKKDSKSTSKNLNSAQKLPKANENKSDKLQPAGAEPTRPRKVPTDVLPALPDIPLPAIQTNYRPLPSLELISSFQPKRKAFSSPQEEEEAGFTGRRMNSKMQVYSGSKCAYLPKMMTLHQQCIRVLKNNIDSIFEVGGVPYSVLEPVLERCTPDQLYRIEECNHVLIEETDQLWKVHCHRDFKEERPEEYESWREMYLRLQDAREQRLRLLTNNIRSAHANKPKGRQAKMAFVNSVAKPPRDVRRRQE | binds |
